Source: patent US20220242958A1, “BISPECIFIC NANOBODIES” (Ablynx N.V., priority 2013, published 2022)

Columns and labels:
[1] = molecular target: T1, human IL12Rβ1 extracellular domain Fc-fusion (Homo sapiens, UniProt P42701); experiment: SPR (Biacore T100) on IL12Rβ1-Fc; assay type: binding
T1 construct: Fc-fusions of human IL12Rβ1, IL12Rβ2 and IL-23R extracellular domains; purchased R&D Systems #839-B1
Protocol: The precise binding affinities of the purified Nanobodies were determined in a multi-cycle kinetic analysis using Surface Plasmon Resonance analysis (Biacore T100) on Fc-fusions of human IL12Rβ1, IL12Rβ2 and IL-23R extracellular domains (R&D Systems, #839-B1, #1959-B2, #1400-IR). Sensorchips CM5 were immobilized with anti-hIgG antibody (GE Healthcare, BR-1008-39), after which receptors were captured at 5 μg/ml protein and contact time of 120 seconds. Running buffer used was HBS-EP+ (GE Healthcare, BR-1006-69) at 25° C., with a flow-rate of […]. For immobilization by amine coupling, EDC/NHS was used for activation and ethanolamine HCl for deactivation (Biacore, amine coupling kit). Nanobodies were evaluated at a concentration range between 1.37 nM and 3 μM. Nanobodies were allowed to associate for 2 min and to dissociate for 15 min at a flow rate of […]. In between injections, the surfaces were regenerated with a 3 min pulse of 3M MgCl2 and 2 min stabilization period. Evaluation of the association/dissociation data was performed by fitting a 1:1 interaction model (Langmuir binding model) by Biacore TWO software v2.0.3.

activated human T cells = experiment: Flow cytometry binding to activated human T cells (TH1); conditions: IL12Rb1 and IL12Rb2 Nanobodies on TH1 activated T cells
Protocol: Dose-dependent binding of monovalent Nanobodies to their cell-expressed receptor in the context of the heterodimeric complex was determined by flow cytometry on activated human T cells from distinct healthy donors.
Human T cells were isolated using the Human T Cell Enrichment Cocktail (RosetteSep #15061) and pre-activated for four days with Dynabeads® Human T-Activator CD3/CD28 (Gibco—Life Technologies #11131D) and one day with recombinant human IL-2 (Life Technologies—Gibco #PHC0027) to induce TH1 differentiation. Routinely, T cell markers surface expression and activation state was checked by FACS using anti-CD3 PE (eBioscience #12-0037-73), anti-CD8-PE (BD Bioscience #555367), anti-CD45RO-PE (BD Bioscience #555493), anti-CD45RA-APC (BD Bioscience #550855) anti-CD25-PE (BD Bioscience #557138) and anti-CD69-PE (BD Bioscience #557050). IL12R surface expression was confirmed by FACS using IL12Rβ1 antibody (R&D MAB839), followed by goat anti-mouse PE (Jackson Immuno Research 115-115-164). The expression of IL23R was checked by polyclonal goat anti-IL-23R (R&D AF1400). CD4 surface expression was confirmed by FACS using APC-labelled anti-CD4 (BD Bioscience #345771). […]
Dose-dependent binding of monovalent Nanobodies was assessed by flow cytometry on the respective Th1 or Th17 enriched T cell populations. […] The cells were then analysed via a BD FACSArray.

[2] = system: IL-12 dependent IFN-γ release, human T cells; experiment: IL-12 mediated IFN-γ release in activated human T cells; assay type: cell-based; conditions: 0.2 pM IL-12; 72 h; donor D839
Protocol: The ability of bispecific polypeptides to simultaneously engage both targets on the same cell was analysed in a IL-12 dependent functional assay, inhibition of IL-12 mediated IFN-γ release in activated human T cells. Since the functional blockade is only mediated via IL12R, avidity by the simultaneous binding of the CD4 Nanobody is expected to translate into increased potency of the bispecific in inhibition of cytokine release.
Isolated human T cells from buffycoats were activated for four days with Dynabeads® Human T-Activator CD3/CD28 (Gibco—Life Technologies #11131D) and one day with IL-2. To differentiate into Th1 subtype, T cells were cultured in presence of IL-12 with co-stimulation provided by plate coated CD3 at 0.5 μg/ml (eBioscience #16-0037-85) and anti-CD28 (1 μg/ml PeliCluster, Sanquin #M1650) in solution.
Dose-dependent blockade of IL-12 mediated IFNγ release was assessed for the bispecific IL-12Rβ2-CD4 and IL-12Rβ1-CD4 polypeptides in both orientations, and the corresponding monovalent Nanobodies. The IL-23R-CD4 bispecific polypeptides served as negative controls. Representative graphs of the bispecific IL12Rβ1-CD4, IL12Rβ2-CD4 and IL23R-CD4 polypeptides are shown in FIG. 3.9, and IC50 values in Table 3.2. […] Although bispecific constructs in both orientations show potency enhancements, the IL12Rβ2 Nanobody in the N-terminal position from CD4 gave stronger enhancements.

B1: IL12Rb1#31: IL-12Rβ1 specific ligand competing Nanobody (protein)
VHH: EVQLVESGGGLVQTGGSLRLSCAASGRTPSIIAMGWFRQTPGKEREFVGEIILSKGFTYYADSVKGRFTISRANAKNTITMYLQMNSLKSEDTAVYYCAARQNWSGNPTRTNEYEYWGQGTLVTVSS
- Binding kinetics (SPR) ka (1/Ms), IL12Rβ1 [1]: 720000 M⁻¹ s⁻¹
- Binding kinetics (SPR) kd (1/s), IL12Rβ1 [1]: 0.017 s⁻¹
- Binding T cells (FACS) EC50 (M) (activated human T cells): No fit
- IFNγ release T cells D839 IC50 (M) [2]: no fit
